The numbers were not newly measured in paper PMC8512968, which cites them from elsewhere.

pKd: −log10 of the molar value.

The target in the data set is band 3 cytoplasmic domain (Homo sapiens) (UniProt P02730). Put plainly: sedimentation equilibrium AUC.

For orientation: pKd means the Kd on a negative log10 scale, so that one unit is a factor of ten. As to “band 3 cytoplasmic domain (from UniProt P02730)”, the pKd is 5.55.
